For one molecule, Kd results are on record in US12552837.

*1 amine or outer side, *2 acyl side, *3 side chain or, on linkers, in order; H or OH if unused. Bridges are numbered along the chain shown (N, C = ends). [ ]: non-standard residue; d: D form. The star is where a group is joined. DOTA = O=C(O)CN1CCN(CC(=O)O)CCN(CC(=O)*)CCN(CC(=O)O)CC1; 1Nal = N[C@@H](Cc1cccc2ccccc12)C(=O)O; TBMB = c1c(C[*:1])cc(C[*:3])cc1C[*:2]; Tle = CC(C)(C)[C@H](N)C(=O)O

This test addresses membrane type 1-matrix metalloproteinase (MT1-MMP), P50281. Nature of the test: not stated at the place; fluorescence polarization with MT1-MMP hemopexin domain per Examples 7-8.

B1: I-23 (peptide)
peptide: {DOTA}-AC[dA]NE[1Nal][dA]CEDFYD[Tle]C-NH2
modifications: linker 2-8-15 via TBMB
SMILES: C[C@H](NC(=O)CN1CCN(CC(=O)O)CCN(CC(=O)O)CCN(CC(=O)O)CC1)C(=O)N[C@H]1CSCc2cc3cc(c2)CSC[C@H](NC(=O)[C@@H](C)NC(=O)[C@H](Cc2cccc4ccccc24)NC(=O)[C@H](CCC(=O)O)NC(=O)[C@H](CC(N)=O)NC(=O)[C@@H](C)NC1=O)C(=O)N[C@@H](CCC(=O)O)C(=O)N[C@@H](CC(=O)O)C(=O)N[C@@H](Cc1ccccc1)C(=O)N[C@@H](Cc1ccc(O)cc1)C(=O)N[C@@H](CC(=O)O)C(=O)N[C@@H](C(C)(C)C)C(=O)N[C@H](C(N)=O)CSC3
Take B1: the dissociation constant (Kd) was 0.52 nM.

A word on the Kd: it is a measure of binding affinity in units of concentration.
